Reference: patent KR20140095558A (dated 2014)

B1: SC06-241 (scFv)
scFv: EVQLVESGGGLVQPGRSLRLSCAASGFTFRSYAMYWVRQAPGKGLEWLALISHDASKMFYADSVKGRFTISRDNSKNTLSLQMNSLTIEDTAVYYCVRERTGYYGAYWGQGTLVTVSSGTGGSGGTGSGTGGSTDIQMTQSPSSLSASVGDRVTLTCRASQGIGTWLAWYQQKPGKAPKLLIYSASSLQSGVPSRFSGSGSGTDFTLSISNLQPEDFATYYCQQANSFPITFGQGTRLEIK
B2: SC06-087 (scFv)
scFv: EVQLVESGGGLVKPGGSLRLSCAASGFTFSSNSMNWVRQAPGKGLEWVSFISSSSTYIYYADSVKGRFTISRDNAKNSLYLQMNSLRAEDTAVYYCARESAAGISYDAFDIWGQGTMVTVSSGTGGSGGTGSGTGGSTQSALTQPASVSGSPGQSITISCTGTSSDVGGYKYVSWYQQHPGKAPKLMIYEVSNRPSGVSNRFSGSKSGSTASLTISGLQAEDEADYYCSSYTSSSTLGVFGTGTKVTVL
B3: SC05-157 (scFv)
scFv: EVQLVESGAEVKKPGESLKISCKGSGYSFTNYWIGWVRQMPGKGLEWMGIVYPGDSDTRYSPSFQGQVTISADKSISTAYLQWSSLKASDTAVYYCARRMAVAGSDAFDIWGQGTMVTVSSGTGGSGGTGSGTGGSTQAVLTQPSSASGTPGQTVTISCSGSTSNIGSHNVNWYQHLPGTAPKLLIYINNKRPSGVPDRFSGSKSGSSASLAISGLQSEDEADYYCAAWDDSLRRPVFGGGTQLTVL
B4: SC06-252 (scFv)
scFv: EVQLVETGGGLVQPGGSLRLSCAASGLTFSSYAMSWVRQAPGKGLEWVSALSGSTTFYADSVKGRFTISRDNAKNTLYLQMNSLRAEDTAVYYCARGNYYGMDVWGQGTTVTVSSGTGGSGGTGSGTGGSTSYVLTQPPSASGTPGQRVTISCSGSSSNIGKFYVYWYQQFPGAAPKLLIYSNNQRPSGVPDRFSGSKSGTSASLAISGLQSEDEADYYCAAWDGSLNGYVFGTGTKVTVL
B5: SC06-079 (scFv)
scFv: EVQLVESGGGLVQPGGSLRLSCAASGFTFSSYAMSWVRQAPGKGLEWVSAISGTGGSAYYADSVKGRFTISRDNSKNTVYLQMNSLRAEDTAVYYCAKGHSSGTNWGQGTLVTVSSGTGGSGGTGSGTGGSTSYVLTQPPSASGTPGQRVTISCSGSSSNIGSNFVYWYQQLPGTAPKLLIYRNNQRPSGVPDRFSGSKSGTSASLAISGLRSEDEADYYCAAWDDSLSGVLFGGGTQLTVL
B6: SC06-077 (scFv)
scFv: QVQLVQSGAEVKKPGSSVKVSCKASGGTFSSYAISWVRQAPGQGLEWMGGIIPIFGTANYAQKFQGRVTITADESTSTAYMELSSLRSEDTAVYYCAREGGVGPAFDIWGQGTMVTVSSGTGGSGGTGSGTGGSTDIQMTQSPDSLAVSLGERATINCKSSQSVLHNSNNKNYLAWYQQKPGQPPKLLIYWASTRESGVPDRFSGSGSGTDFTLTISSLQAEDVAVYYCQQYYGSPYTFGQGTKLEIK
B7: SC06-388 (scFv)
scFv: EVQLVETGAEVKKPGESLRISCKGSGYSFTSYWIAWVRQMPGKGLEWMGVIYPGDSDARYSPSFQGQVTMSVDKSISTAYLQWSSLKASDTAMYYCAKLRSKNTGLDYWGQGTLVTVSSGTGGSGGTGSGTGGSTQSALTQPPSASGSPGQSVTISCTGTSSDVGGYNFVSWYQQHPGKAPKLMIYEVSNRPSGVPDRFSGSKSGNTASLTVSGLQAEDEADYYCSSYAGNNNLAFGGGTQLTVL
B8: SC06-089 (scFv)
scFv: EVQLVETGGGLVQPGGSLRLSCAASGFTFSSYSMNWVRQAPGKGLEWVSFISSSSSTIYYADSVKGRFTIARDNAKNSLYLQMNSLRDEDTAVYYCARPVGTGISLFHAFDIWGQGTMVTVSSGTGGSGGTGSGTGGSTQSVLTQPPSVSVAPGQTARITCGGNNIGSKYVHWYQQKPGQAPVLVVYDDSDRPSGIPERFSGSNSGNTATLTISRVEAGDEADFYCQVWDGSSDPVVFGGGTKLTVL
B9: SC06-198 (scFv)
scFv: QLQLQESGPGLVKPSETLSLTCAVSGYSITSGYYWGWVRQPPGKGLEWIGSIYHTGSTYYNPSLKSRVTISVDTSKNQFSLKLNSLTAADTAVYFCASQSPAFDFWGQGTMVTVSSGTGGSGGTGSGTGGSTQSVLTQPPSVSGAPGQRVTISCTGSSSNIGTGYDVHWYQQLPGTAPKLLIYGNNNRPSGVPDRFSGSKSGTSASLAITGLQAEDEADYYCATWDDSLNGWVFGGGTKLTVP
B10: SC06-242 (scFv)
scFv: EVQLVESGPGLVKPSETLSLTCTVSGGSISSYYWSWIRQPPGKGLEWIGYIYYTGTTNYNPSLNSRVTISADTSKNQFSLKLSSVTAADTAVYYCARGGQTAGVWGKGTTVTVSSGTGGSGGTGSGTGGSTQSVLTQPPSVSVAPGQTARITCGGYNIGRKSVHWYQQKPGLAPVLVVYDNSDRPSGIPARFSGSNSGNTATLTISGTQAMDEADYYCQAWDRGTAVFGTGTKVTVL
B11: SC06-409 (scFv)
scFv: EVQLVQSGAEVKKPGESLKISCKGSGYSFTNYWIGWVRQMPGKGLEWMGIIYPGDSDTRYSPSFQGQVTISADKSISTAYLQWSSLKASDTAMYYCARHTQNKNGMNTFDIWGQGTMVTVSSGTGGSGGTGSGTGGSTQSALTQPPSASGSPGQSVTISCTGTSSDIGGYNYVSWYQQHPGKAPKLMIYEVSNRPPGVSNRFSGSKSGNTASLTISGLQAEDEADYYCSSYSTTTTRVIFGGGTKLTVL
B12: SC06-402 (scFv)
scFv: QVQLVQSGAEVKKPGESLKISCKGSGYSFTSYWIGWVRQMPGKGLEWMGIIYPGDSDTRYSPSFQGQVTISADKSISTAYLQWSSLKASDTAMYYCARWGGVCSSTSCPNRDAFDIWGQGTMVTVSSGTGGSGGTGSGTGGSTQSALTQPRSVSGSPGQSVTISCTGTSSDVGGYNYVSWYQQHPGKAPKLMIYDVSNRPSGVSNRFSGSKSGNTASLTISGLQAEDEAEFHCSSYRSSGASPVVFGGGTKLTVL
B13: SC06-078 (scFv)
scFv: EVQLVESGAEVKKPGSSVKVSCKASGGTFSSYAISWVRQAPGQGLEWMGGIIPIFGTANYAQKFQGKVTITADESTSTAYMELSSLRSEDTAVYYCARLSPRYYGMDVWGQGTTVTVSSGTGGSGGTGSGTGGSTQSALTQPRSVSGSPGQSVTISCTGTSSDVGGYNYVSWYQQHPGKAPKLMIYGGSERPSGVSNRFSGSKSGNTASLTISGVQAEDEADYYCSSYTSSGTLLFGGGTQLTVL
B14: SC06-191 (scFv)
scFv: EVQLVESGGGVVQPGRSLRLSCVASEFTFSNYGMHWVRQAPGKGLEWVAVIWYDGSNEDYADSVKGRFTISRDNSKNTVYLHMNSLRAEDTAVYFCTRGQYSSTWFLDYWGQGTLVTVSSGTGGSGGTGSGTGGSTDIQLTQSPSTLSASVGDRVTITCRASQSISSWLAWYQQKPGKAPKLLIYKASSLETGVPSRFSGSGSGTDFTLTISSLQPEDFATYYCQQANSFPLTFGGGTKVDIK
B15: SC06-415 (scFv)
scFv: EVQLVESGGGLVQPGRSLRLSCAASGFTFDDYAMHWVRQAPGKGLEWVSGISWNSGSIGYADSVKGRFTISRDNAKNSLYLQMNSLRAEDSAVYYCARGGQRFDFWGQGTLVTVSSGTGGSGGTGSGTGGSTQSALTQPPSASGSPGQSVTISCTGTSSDVGGYNYVSWYQQLPGKAPKLLIYDVNNRPSGVSNRFSGSKSGNTASLTISGLQAEDEAEYYCGSSVGSRLRIFGGGTKLTVL
B16: SC05-159 (scFv)
scFv: QVQLVQSGAEVKKPGATVKISCKVSGYTFTDYYMHWVQQAPGKGLEWMGLVDPEDGETIYAEKFQGRVTITADTSTDTAYMELSSLRSDDTAVYYCARAEVMTTINNWYFDLWGRGTLVTVSSGTGGSGGTGSGTGGSTSYVLTQPPSASGTPGQRVTISCSGSSSNIGSNNVSWYQQLPGTAPKLLIYSNNQRPSGVPDRFSGSKSGTSASLAISGLQSEDEADYYCAAWDDSLNGWVFGGGTKLTVL
B17: SC06-071 (scFv)
scFv: EVQLVESGGGVVQPGRSLRLSCAASGFTFSSYGMHWVRQAPGKGLEWVAMIWSDGSNKYYADSVKGRFTISRDNSKNTLYLQMNSLRVEDTAVYYCASNYGSGSYWGGFDYWGQGTLVTVSSGTGGSGGTGSGTGGSTQSALTQPASVSGSPGQSITISCTGTSSDVGGYNLVSWYQQHPGKAPKLMIYEGSKRPSGVSNRFFGSKSGDTASLTISGLQAEDEADYYCSSYTTSSTHVFGTGTKVTVL
B18: SC06-389 (scFv)
scFv: QVQLVQSGAEVKKPGESLKISCKGSGYSFSTYWIGWVRQMPGKGLEWMGIIYPGDSDTRYSPSFQGQVTISADKSISTAHLQWSSLKASDTAMYYCARPGPRGYNHGFDYWGQGTLVTVSSGTGGSGGTGSGTGGSTSSELTQDPAESVALGQTVKITCQGDSLRRYYASWYQQKPGQAPVLVIYGKNNRPSGIPDRFSGSRSGNTASLTITGAQAEDEAVYYCNSRDSSGNSVVFGGGTKLTVL
B19: SC06-092 (scFv)
scFv: EVQLVESGGGLVQPGRSLRLSCTGSGFTFGDYAMSWFRQAPGKGLEWVGFIRNKAYGGTAEYAASVKDRFIISRDDSKSIAYLQMNSLKTEDTAVYYCVRREYDTGWLDYWGQGTLVTVSSGTGGSGGTGSGTGGSTQSALTQPPSASGSPGQSVTISCTGTSSDVGGYNYVSWYQRHPGKAPKLMIYDVTDRPSGVSNRFSGSKSGNTASLTISGLQAEDEADYYCSSYTSSSTSAVFGGGTKLTVL
B20: SC06-246 (scFv)
scFv: EVQLVESGGGLIQPGGSLRLSCAASGFTVSSDFMTWVRQAPGRGLEWVSLIYSGGKTNYADSVKGRFTISRDNSRNTLYLQMNSLRAEDTAVYYCARSVCSTISCSKLDDWGQGTLVTVSSGTGGSGGTGSGTGGSTQAVLTQPSSVSVAPGQTARITCGGNNIGRKSVHWYQQKPGLAPVLVVNDNSDRPSGIPARFSGSNSGNTATLTISRVEAGDEADYYCHVWGSSRDHYVFGTGTKVTVL

biological target: T1, BSA (bovine serum albumin) (bovine (송아지 혈청 알부민), UniProt P02769 25-607); experiment: phage ELISA, 1% BSA coated, anti-M13 peroxidase, OD 492 nm
T1 construct: Negative control antigen of the phage ELISA; also called 송아지 혈청 알부민
T1 sequence (P02769 25-607 limits assumed): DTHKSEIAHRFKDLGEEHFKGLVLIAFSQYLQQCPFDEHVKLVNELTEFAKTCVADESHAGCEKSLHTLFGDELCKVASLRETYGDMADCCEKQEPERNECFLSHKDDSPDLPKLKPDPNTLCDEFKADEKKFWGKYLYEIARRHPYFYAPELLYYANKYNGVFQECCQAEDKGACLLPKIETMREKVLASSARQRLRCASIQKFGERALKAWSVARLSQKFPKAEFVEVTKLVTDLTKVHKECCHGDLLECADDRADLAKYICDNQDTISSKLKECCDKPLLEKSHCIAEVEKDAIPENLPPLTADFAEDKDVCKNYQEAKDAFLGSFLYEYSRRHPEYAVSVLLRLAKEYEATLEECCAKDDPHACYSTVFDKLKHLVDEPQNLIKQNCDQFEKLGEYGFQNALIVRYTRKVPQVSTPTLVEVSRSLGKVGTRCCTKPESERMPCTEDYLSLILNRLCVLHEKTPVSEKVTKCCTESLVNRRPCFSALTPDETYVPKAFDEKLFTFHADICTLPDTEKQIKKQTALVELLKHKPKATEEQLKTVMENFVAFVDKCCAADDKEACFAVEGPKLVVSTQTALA

Row | Binder | binding result
1 | B1 | no binding
2 | B2 | no binding
3 | B3 | no binding
4 | B4 | no binding
5 | B5 | no binding
6 | B6 | no binding
7 | B7 | no binding
8 | B8 | no binding
9 | B9 | no binding
10 | B10 | no binding
11 | B11 | no binding
12 | B12 | no binding
13 | B13 | no binding
14 | B14 | no binding
15 | B15 | no binding
16 | B16 | no binding
17 | B17 | no binding
18 | B18 | no binding
19 | B19 | no binding
20 | B20 | no binding
